The values that follow come from article PMC7278562, “A high‐affinity, bivalent PDZ domain inhibitor complexes PICK1 to alleviate neuropathic pain” (EMBO Molecular Medicine, 2020).

Ends that are not written are not given here. Peptide text beside a SMILES is read from it. * marks the point of attachment. 3‑phenylpropyl = c1ccc(CCC*)cc1; Cyclohexylmethyl = C1CCC(C*)CC1; Bn = c1ccc(C*)cc1

Data set [1] concerns the target T1, PICK1 (Rattus norvegicus, UniProt Q9EP80).
T1 construct: GST (inferred from pET41 and Glutathione-Sepharose capture) (cleaved yes); made in house; host or cells: Escherichia coli BL21-DE3-pLysS
The note with it: best-known binder of the PICK1 PDZ domain; ref Madsen et al, 2005; cited from earlier work. The source says: To this end, we took advantage of a fluorescence polarization (FP) competition assay using a fluorescent tracer peptide corresponding to the C‐terminal 11 residues of the DAT (OrG‐C11) (Fig EV1A).

For data set [2], the system named is mechanical allodynia in SNI mice. Kind of data set: Spared nerve injury (SNI) model, von Frey paw withdrawal threshold. In kind it is in vivo.
For data set [3] the following is noted: 20 μM i.t.; for presence in spinal cord after i.t. injection: naïve mice, 1 h after injection, fluorescence. As for the experimental part: All spinal cords were isolated by hydraulic extrusion and post‐fixed in PFA 4% for 8 h. Spinal cords were subsequently cryoprotected in 30% sucrose, embedded in Tissue‐Tek® OCT, and sliced at 20 μm thickness by Cryostat Leica CM3050 S.
Epifluorescence microscopy was performed using a Zeiss axioscan.Z1, with a plan‐apochromat 10×/0.45 objective (Carl Zeiss). […] All channels were imaged covering a total of around 6 μm of the 20‐μm‐thick spinal cord slices.

Data set [4] has as its target T1, PICK1. Kind of data set: FP saturation binding. The note with it: Appendix Fig S2, n = 3. As for the experimental part: Protein expression was induced with 1 mM IPTG and grown overnight at 20°C. […] 1 l culture at pH 7.4. Suspended pellet was frozen at −80°C. The bacterial suspension was thawed and cleared by centrifugation (F20 rotor, 36,000 × g for 30 min at 4°C). The supernatant was collected and incubated with Glutathione‐Sepharose 4B beads (GE Healthcare) for 2 h at 4°C under gentle rotation. […] Washed beads were transferred to a PD10 gravity column and were washed additionally three times. Bead solution was incubated with thrombin overnight at 4°C under gentle rotation.
The data were plotted using GraphPad Prism 8.3 and fitted to either a sigmoidal dose response for saturation experiments or One site competition for competition experiments. Kis were automatically calculated using the Cheng–Prusoff equation.

In the next data set the test system is hippocampal neurons. In words: Membrane permeability in dissociated hippocampal neurons (confocal, DiO membrane dye). To be noted: 21 DIV neurons, 1 h, 37°C, 5 μM TMR-labeled peptide (legend: TMR-C5 20 μM), confocal fluorescence.
The next data set in a line: Plasma stability. The note with it: human plasma (3H biomedical) with 2% DMSO, 50 μM peptide, 37°C, GnHCl/TCA-acetone work-up, C8 RP-HPLC (UPLC), normalized to T = 0, mean, n ≥ 3, read-out: peptide remaining after incubation with human plasma. The format is in vitro ADME. As for the experimental part:
The peptides were dissolved to a final concentration of 50 μM in human plasma (3H biomedical, Uppsala, Sweden) containing 2% DMSO and incubated at 37°C. Aliquots (45 μl) were added directly to 26 mg guanidine hydrochloride (GnHCl), vortexed, and incubated for 2 min. 90 μl of 10% trichloroacetic acid (TCA) in acetone was then added, and the suspension was incubated at 5°C for 24 h.
The suspension was centrifuged at 18,000 g for 5 min. The supernatants were quantified by analytical C8 RP‐HPLC and normalized to the compound concentration at T = 0. Ligand recovery was > 82%.

Data set [5] addresses PICK1 (protein interacting with C kinase 1), purified recombinant rat (rat) (UniProt Q9EP80). In words: fluorescence polarisation; competition (Ki with SEM interval); tracer and conditions not stated. (In general: In fluorescence polarisation assays a small probe gives low polarisation when free and higher when bound to something large.)
Data set [6] addresses PICK1 (protein interacting with C kinase) (rat) (UniProt Q9EP80). Kind of data set: fluorescence polarisation; competition; fixed PICK1 and a fluorescent tracer (not named for this series) against increasing unlabeled peptide; 20 min on ice; Ki by Cheng-Prusoff.
Data set [7] has as its target OrG-C11, Oregon Green labelled C-terminal 11 residues of the dopamine transporter. Kind of data set: fluorescence polarisation; saturation; fluorescent peptide fixed at 20 nM, increasing PICK1; 0.01% Triton X-100 (PICK1 a dimer); KD from a log dose-response fit.
Data set [8] has as its target Org-GluA2 C11, Oregon Green labelled C-terminal 11 residues of GluA2. The data set is described as above.
For data set [9], the target named is DAT C13 C-terminal 13 residues (Homo sapiens) (UniProt Q01959). The note with it: cited from earlier work.
Data set [10] addresses PICK1 (protein interacting with C kinase) (rat) (UniProt Q9EP80). In words: fluorescence polarisation.
Data set [11] shares this target. In words: SEC; analytical SEC of purified PICK1 (40 uM in the titration) alone or incubated with peptide; absorbance at 280 nm and, for the TMR peptide, 544/546 nm.
Data set [12] shares this target. In words: fluorescence polarisation. This is another data set of the same source.

Sequence of PICK1 PDZ (Q9NRD5 19-108): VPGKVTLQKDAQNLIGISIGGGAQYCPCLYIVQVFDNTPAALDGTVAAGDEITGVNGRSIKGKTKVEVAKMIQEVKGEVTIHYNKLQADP

As to `CC(C)C[C@H](NC(=O)[C@H](Cc1c[nH]c2ccccc12)NC(=O)[C@H](Cc1c[nH]cn1)NC(=O)[C@H](CCCNC(=N)N)NC(=O)[C@H](CC(C)C)NC(=O)[C@@H](NC(=O)[C@H](Cc1ccccc1)NC(=O)[C@H](CCC(N)=O)NC(=O)[C@H](CCCNC(=N)N)NC(=O)[C@@H](NC(=O)[C@@H](N)CCC(=O)O)C(C)C)[C@@H](C)O)C(=O)N[C@@H](CCCCN)C(=O)N[C@H](C(=O)O)C(C)C` [DAT C13] (H-EVRQFTLRHWLKV-OH), the Ki (commonly the dissociation constant of the complex between target and ligand, obtained from inhibition or displacement) on PICK1 [1] was 1 µM.
With `CCOC(=O)NC(=O)/C(C#N)=C/c1ccc(Cl)c(Cl)c1` [FSC231], the “effect on PWT / ipsilateral paw hypersensitivity” value in [2] (i.t. 20 μM, initiation stage (2 days after injury), n = 8 mice/group) is “did not significantly change PWT”.
As to `CC(C)C[C@H](NC(=O)[C@H](Cc1c[nH]c2ccccc12)NC(=O)[C@H](Cc1c[nH]cn1)NC(=O)CCOCCOCCN(CCOCCOCCC(=O)N[C@@H](Cc1c[nH]cn1)C(=O)N[C@@H](Cc1c[nH]c2ccccc12)C(=O)N[C@@H](CC(C)C)C(=O)N[C@@H](CCCCN)C(=O)N[C@H](C(=O)O)C(C)C)C(=O)[C@H](CCCNC(=N)N)NC(=O)[C@H](CCCNC(=N)N)NC(=O)[C@H](CCCNC(=N)N)NC(=O)[C@H](CCC(N)=O)NC(=O)[C@H](CCCNC(=N)N)NC(=O)[C@H](CCCNC(=N)N)NC(=O)[C@H](CCCCN)NC(=O)[C@H](CCCCN)NC(=O)[C@H](CCCNC(=N)N)NC(=O)CNC(=O)[C@H](Cc1ccc(O)cc1)NC(=O)c1ccc2c(c1)C(=O)OC21c2ccc(N(C)C)cc2Oc2cc(N(C)C)ccc21)C(=O)N[C@@H](CCCCN)C(=O)N[C@H](C(=O)O)C(C)C` [TMR-Tat-P4-(C5)2], in [3] (SNI mice, time points 0, 30, 60, 120 min), the “time of maximal accumulation in cells” value amounted to 60 min. Besides, in [3] (SNI mice, NeuN and GFAP staining), the “cell type of peptide signal in gray matter” value was “exclusively confined toward neurons”. Further, the “presence in spinal cord after i.t. injection” value in data set [3] was “clearly visible in both the ventral and dorsal parts of the spinal cord”. Also, at PICK1 [4], the “affinity from saturation binding curves” value is “low nanomolar affinity”. The “membrane penetration / labeling of neurons” value with hippocampal neurons is reported as “labeled neurons”.
Turning to `CC(C)C[C@H](NC(=O)[C@H](Cc1c[nH]c2ccccc12)NC(=O)[C@H](Cc1cnc[nH]1)NC(=O)[C@H](CCCNC(=N)N)NC(=O)[C@H](CCCNC(=N)N)NC(=O)[C@H](CCCNC(=N)N)NC(=O)[C@H](CCC(N)=O)NC(=O)[C@H](CCCNC(=N)N)NC(=O)[C@H](CCCNC(=N)N)NC(=O)[C@H](CCCCN)NC(=O)[C@H](CCCCN)NC(=O)[C@H](CCCNC(=N)N)NC(=O)CNC(=O)[C@@H](N)Cc1ccc(O)cc1)C(=O)N[C@@H](CCCCN)C(=O)N[C@H](C(=O)O)C(C)C` [Tat-C5], the fraction remaining – broadly, the share of the starting amount still present when the sample was taken – at 24 h, 50 μM in “Plasma stability” is about 5%.
As for `NCC1(CC(=O)O)CCCCC1` [gabapentin], the “efficacy 14 days after nerve injury” value in data set [2] (i.p. 30 mg/kg, chronic phase, n = 4 per gender) is given as “comparable efficacy”. The ipsilateral paw threshold entry in data set [2] (i.p. 30 mg/kg, initiation stage (2 days after injury), at 1, 2, 3 h, n = 4 mice) is recorded as “full recovery”.
Consider DAT C3 peptide, N-acetylated, R = COCH3, for which the inhibitory constant (Ki) in [5] worked out at 3.8 µM.
DAT C3 peptide, N-alkylated, R = CH3: the Ki in data set [5] was determined as 9.38 µM.
As for “DAT C3 peptide, N-alkylated, R drawn (cyclohexylmethyl)”, the Ki in data set [5] stood at 6.82 µM.
With DAT C3 peptide, no modification, the Ki in data set [5] was found to be 4.1 µM.
Consider P4‐(C5)2 (peptide), for which the Ki in data set [6] was 0.098 µM.
Molecule P28‐(C5)2 (peptide) returned a Ki in data set [6] of 0.593 µM.
In the case of PEG0‐(HWLKV)2 (peptide), the fold increase in affinity over C5 in data set [6] was over 10 fold.
With PEG8‐(HWLKV)2 (peptide), the fold increase in affinity over C5 in data set [6] is over 10 fold.
PEG12‐(HWLKV)2 (peptide) yielded a fold increase in affinity over C5 in data set [6] of over 10 fold.
Consider “PICK1 (protein interacting with C kinase 1), purified recombinant rat (from UniProt Q9EP80 1-416) (natural protein)”, for which the values for the Kd in [7] and in data set [8] were 0.44 µM and 1.53 µM, respectively.
As for PICK1 PDZ (from UniProt Q9NRD5), the Ki in data set [9] was 1 µM.
For the molecule TMR‐Ahx‐YGRKKRRQRRR‐HWLKV [TMR-Tat-C5], the “presence in spinal cord after i.t. injection” value in [3] was “clearly visible in both the ventral and dorsal parts of the spinal cord”.
For the molecule Tat‐P4‐(C5)2 (peptide), the results for the Ki in [10] and in data set [12] were 0.0062 µM and 0.0017 µM, respectively. This molecule also had a fold affinity gain over C5 in [10] of over 300 fold. Moreover, the stoichiometry N (Tat‐P4‐(C5)2 per PICK1) in data set [11] was found to be 0.25.
On to {n‑propyl}-WLKV [DAT C4 peptide, N-alkylated, R = (CH2)2CH3], for which the inhibition constant Ki in data set [5] was 46.6 µM.
Same read-out and setting: then WLKV [DAT C4 peptide, no modification], with 5.69 µM; and Bn-WLKV [DAT C4 peptide, N-alkylated, R drawn (benzyl)], with 24.5 µM.
Turning to {2‑phenylethyl}-WLKV [DAT C4 peptide, N-alkylated, R drawn (2-phenylethyl)], the Ki in [5] came out at 26.2 µM.
For the molecule {2‑cyclohexylethyl}-WLKV [DAT C4 peptide, N-alkylated, R drawn (2-cyclohexylethyl)], in [5], the Ki is 31.8 µM.
On the same count and under the same terms, then methyl-WLKV [DAT C4 peptide, N-alkylated, R = CH3], with 18.8 µM; and Ac-WLKV [DAT C4 peptide, N-acetylated, R = COCH3], with 3.49 µM.
Regarding {2‑(naphthyl)ethyl}-WLKV (not fully specified) [DAT C4 peptide, N-alkylated, R drawn (2-naphthylethyl)], the inhibitory constant (Ki) in data set [5] was determined as 48 µM.
Turning to {3‑phenylpropyl}-WLKV [DAT C4 peptide, N-alkylated, R drawn (3-phenylpropyl)], the Ki in data set [5] came out at 38.6 µM.
Take Et-WLKV [DAT C4 peptide, N-alkylated, R = CH2CH3]: the Ki in data set [5] is 30 µM.
For Cyclohexylmethyl-WLKV [DAT C4 peptide, N-alkylated, R drawn (cyclohexylmethyl)], the inhibition constant (Ki) in [5] was 15.1 µM.
On to {n‑butyl}-WLKV [DAT C4 peptide, N-alkylated, R = (CH2)3CH3], for which the Ki in [5] was 45.3 µM.
